Data reported in patent US5456909A, “Glycoform fractions of recombinant soluble complement receptor 1 (sCR1) having extended half-lives in vivo” (T Cell Sciences, Inc., priority 1992, dated 1995).
Several values for one entry are separate records, joined by “and”; a condition that tells them apart may be missing. Equal values may be shown once.

Tests used:
[1] = tested on: complement-mediated lysis of antibody coated SRBC; test: Inhibition of complement-mediated hemolysis of antibody-sensitized SRBC in vitro; format: cell-based, human; conditions: for IH50 (concentration giving 50% inhibition of hemolysis): SRBC, human serum as complement source; for antihemolytic potency comparison, in words: in vitro
Protocol: SRBC presensitized with rabbit anti-SRBC antibody (Diamedix, Miami, Fla.) were mixed in a V-bottom microtiter wells (Costar, Cambridge, Mass.) with an appropriate dilution of the test plasma and an aliquot of diluted human serum as a complement source. After incubation, 37° C., 1 hour, the unlysed red cells were pelleted by centrifugation, the supernatant transferred to corresponding flat bottom microwells (Costar, Cambridge, Mass.), and absorbance at 415 nm measured. Inhibition of complement-mediated lysis of the antibody coated SRBC was measured as a reduction in the absorbance in the presence of test sample.
A range of dilutions of TP10HD or TP10HD glycoform spanning 7.8 to 1000 ng/ml was examined for each sample.

[2] = Pharmacokinetic study 3: iv TP10HD-CC in pigs, residual functional activity by hemolysis inhibition with pig complement; format: in vivo; conditions: 1 mg/kg
Protocol: Study 3: TP10HD-CC was administered as supplied to a final dose of 1 mg/kg.
In Study 3, test material was injected iv through a jugular vein cannula into piglets ranging in weight from 4.5 to 6.1 kg. Blood samples were taken via a previously implanted jugular vein cannula into syringes containing lithium heparin at a final concentration of 15 units/ml. A preinfusion sample, 10 ml, was taken at zero time and postinfusion samples, 1.0 ml, were taken at 5, 10, 15, 30, 45, 60, 120, 180, 240, 300, 360 minutes and 24 hours. Anticoagulated blood samples were centrifuged at ~3000 rpm, 4° C., 5 minutes and the platelet-poor plasma was aliquotted and stored at or below -70° C.
Plasma samples were analyzed for residual test material by an in vitro functional assay, as above, using pig rather than human complement. Pharmacokinetic half-life was calculated from the titer of the residual functional activity.
Prior to infusion with TP10HD-CC, plasma was collected from each pig to be used as a sample diluent and complement source for the hemolysis assay. Test samples were diluted a minimum of 1:50 with 0.1M Hepes, 0.15M NaCl, pH 7.4 buffer. For greater dilution, test samples were diluted with preinfusion plasma already diluted 1:50 in the same buffer, thereby maintaining the final plasma concentration at 1:50. At this dilution, the degree of hemolysis was equivalent to hemolysis with human complement, as described above. Other manipulations were as described above. Standard curves with known quantities of TP10HD can be used to calibrate the assay so that results can be expressed as μg/ml TP10HD remaining in the plasma versus time.
The pharmacokinetic parameters for clearance rate, compartment volume, rate constants and half-life were obtained by fitting the data for each pig to two and three compartment models. […] These phases represent 69% and 31% respectively of the given dose such that approximately one-third of the dose was cleared slowly.

[3] = Isoelectric point by chromatofocusing (Mono P, pH 7.1 to 4.0); format: physicochemical
Protocol: Chromatofocusing is a method of separating isoforms of proteins according to their isoelectric point, pI, using an ion exchange column and a pH gradient created with amphoteric buffers of different pH. In this study, analysis of the TP10HD preparations was performed using a pH gradient of 7.1 to 4.0. The chromatographic resin was Mono P, Hr5/5 (Pharmacia Fine Chemicals, Piscataway, N.J.); the starting buffer was 0.025M Bis/Tris titrated to pH 7.1 with saturated iminodiacetic acid; the eluant was polybuffer 7-4 (Pharmacia Fine Chemicals, Piscataway, N.J.) diluted 1:10 (v/v) with water and adjusted to pH 4.0 with HCl; cleaning buffer was 2M NaCl in water. The experimental conditions were chosen to yield a linear pH gradient of 7.1 to 4.0 units.

[4] = Pharmacokinetic studies 1, 4, 5, 7, 9: iv clearance of 125I-labelled TP10HD preparations in rats; format: in vivo, Sprague-Dawley rats
Protocol: In Studies 1, 2, 4, 5, 7 and 9, Iodination was carried out by the chloramine-T procedure. Sodium phosphate buffer, 0.5M, pH 7.6, 50 μl, was added to 1 mCi of Na-^125 I (New England Nuclear, Boston, Mass.) as supplied. The sample of TP10HD, typically 100 μg in 100 μl (Study 5=69 μg; Study 7=34 μg; Study 9=91 μg), was added followed by 50 μl of a 15 mg/ml solution of freshly prepared chloramine-T. The reaction mixture was vigorously shaken for 60 seconds. Sodium metabisulfite (50 μl, 15 mg/ml) and sodium iodide (100 μl, 10 mg/ml) were successively pipetted into the reaction vial. The reaction mixture was passed onto a PD10 column (Pharmacia Fine Chemicals, Piscataway, N.J.), pre-equilibrated with phosphate buffered saline, pH 7.2-7.4, containing 0.1% bovine serum albumin (Sigma Chemical Company, St. Louis, Mo.). Ten 0.5 ml fractions were collected and 2 μl aliquots were counted directly and after combining with 100 μl of a 0.1% bovine serum albumin solution and 1 ml of 20% trichloroacetic acid. After incubation at 0° C. for 1 hour, the acid-precipitable protein associated radioactivity was collected by centrifugation for 10 minutes at 1000×g and quantitated by scintillation counting. Fractions containing >90% of the total radioactivity in the acid precipitate were pooled for further use.
Study 1: Radioiodinated TP10HD-CX was mixed with purified unlabeled TP10HD-CX to yield a dosing solution suitable for administering a 1 mg/kg total TP10HD dose containing 16-25×10^6 cpm of radiolabeled TP10HD-CX.
Study 4: Radioiodinated TP10HD-CC was mixed with purified unlabeled TP10HD-CC to yield a dosing solution suitable for administering a 1 mg/kg or a 3 mg/kg total TP10HD dose containing ~20×10^6 cpm.
Study 5: Radioiodinated TP10HD-CCW was mixed with purified unlabeled TP10HD-CCW to yield a dosing solution suitable for administering a 1 mg/kg total TP10HD dose containing ~20×10^6 cpm.
Study 7: Radiolabeled TP10HD-CCS was mixed with purified unlabeled TP10HD-CCS to yield a dosing solution suitable for administering a 1 mg/kg total TP10HD dose containing ~20×10^6 cpm.
Study 9: Radioiodinated TP10HD-CXD was mixed with purified unlabeled TP10HD-CXD to yield a dosing solution suitable for administering a 1 mg/kg total TP10HD dose containing ~20~10^6 cpm.
In Studies 1, 4, 5, 7 and 9, test material was injected intravenously (iv) into four Sprague-Dawley rats (2 male, 2 female). Blood samples were obtained from the retroorbital plexus at 1, 3, 5, 10, 20, 30, 45, and 60 minutes post injection, and the radioactivity determined. Additional post infusion blood samples were taken at 2, 3, and 4 hours postinjection (STUDY 4) and at 120 minutes (STUDY 5). The plasma fraction of the remaining blood sample was retained for further analysis.
Plasma samples were analyzed for residual test material by measuring:
(1) total residual radioactivity;
(2) percentage of radiolabeled material precipitated with TCA;
(3) residual acid precipitable radioactivity in the presence of SDS; and
(4) material immunologically identifiable in an enzyme immunoassay as TP10HD.
Radioisotope data was quantitated as total cpm/ml blood or plasma and as the percentage of a theoretical time zero value. Pharmacokinetic half-life was calculated from the radiometric data.
In Study 9, removal of N-linked oligosaccharide chains was performed by n-glycanase digestion, performed according to manufacturer's instructions (Genzyme Corporation, Boston, Mass.). Typically, 58 μg TP10HD-CX was incubated with 10.5 units of n-glycanase for 18 hours, 37° C., in 0.2M sodium phosphate, pH 8.6 buffer.
Precipitation with trichloroacetic acid was performed as follows: Plasma (20 μl) was precipitated by sequential addition of 450μl of 0.13M Tris HCl, 4% SDS, 10% glycerol, pH 6.8 buffer, followed by 30 μl of fetal bovine serum and 500μl of 20% trichloroacetic acid. […]

[5] = Pharmacokinetic studies 6 and 8: iv TP10HD-CCW and TP10HD-CCS in rabbits, radiometric and immunoassay; format: in vivo, Dutch rabbits; conditions: 1 mg/kg
Protocol: In Studies 6 and 8, iodination was performed by the iodogen method (Fraker et al., 1978, Biochem Biophys Res Commun 80:849); the average degree of ^125 I substitution was 0.56 atoms/molecule of protein resulting in a specific activity of 22.7 kBq/mg for STUDY 6, and the average degrees of ^125 I substitution was 0.76 atoms/molecule of protein resulting in a specific activity of 29.5 kBq/mg for STUDY 8.
Studies 6 and 8: As described in STUDY 2 except that the radioiodinated TP10HD-CCW was added to ~1% w/w.
In Studies 6 and 8, test material was injected iv into a group of 5 Dutch rabbits (approximately 1 kg) at a dose of 1 mg/kg. Blood samples, 1 ml, were taken from an ear artery immediately predosing and at 5, 10, 20, 30, 60, 120 and 180 minutes, mixed with heparin, and radioactivity determined in an aliquot by scintillation counting after precipitation with trichloroacetic acid.
Plasma samples were analyzed for residual test material by an enzyme immunoassay (EIA) specific for TP10HD. Pharmacokinetic half-life was calculated from both the radiometric and immunoassay data.
Precipitation with trichloroacetic acid was performed as follows: Plasma (20 μl) was precipitated by sequential addition of 450μl of 0.13M Tris HCl, 4% SDS, 10% glycerol, pH 6.8 buffer, followed by 30 μl of fetal bovine serum and 500μl of 20% trichloroacetic acid. After each addition, the tubes were vigorously mixed and incubated for […] at 4° C.; the pellets of precipitable protein were collected by centrifugation at 1000×g for 10 minutes, the supernatants removed and discarded, and the residual radioactivity measured by scintillation counting.
A commercially available assay was utilized (Cellfree® CD35, T Cell Diagnostics, Inc. Cambridge, Mass.). In brief, polystyrene beads coated with polyclonal rabbit anti-TP10HD antibodies were simultaneously incubated with the diluted test sample and a horse radish peroxidase-conjugated polyclonal rabbit anti-TP10HD antibody. Following incubation, the beads were removed from the reaction mixture, washed of nonspecifically bound material, and subsequently incubated in the presence of an appropriate dilution of substrate. Color development was terminated by the addition of sulfuric acid and the absorbance (optical density) determined as a measure of TP10HD concentration.

Substance | IH50 (concentration giving 50% inhibition of hemolysis) [1] | antihemolytic potency comparison, in words [1] | α phase half-life ([4]; 1 mg/kg) [h] | β phase half-life ([4]; 1 mg/kg) [h] | % dose cleared, α-phase ([5]; immunoassay data) [%] | % dose cleared, β-phase ([5]; immunoassay data) [%] | Serum half-life, α-phase ([5]; immunoassay data) [h] | Serum half-life, β-phase ([5]; immunoassay data) [h] | Total Clearance ([5]; immunoassay data) [mL/min/kg] | % dose cleared, β-phase ([5]; radiometric data) | Peak (t = O) concentration ([5]; radiometric data) [µg/mL] | Serum half-life, β-phase ([5]; radiometric data) | Total Clearance ([5]; radiometric data) | Volume of Distribution, α-phase ([5]; radiometric data) [L/kg] | Volume of Distribution, β-phase ([5]; radiometric data) | other results
TP10HD-CC: TP10HD produced by cells cultured in a fluidized bed perfusion bioreactor and purified by combination chromatography | about 50±3 ng/ml | no basis for concluding that TP10HD-CC, TP10HD-CCW and TP10HD-CCS differ in their potency | 0.153 | 3.018 | – | – | – | – | – | – | – | – | – | – | – | potency relative to the strongly cationic glycoform (fold lower) ([1]; from IH50 of TP10HD-CX and TP10HD-CC): approximately 2 fold; % of given dose represented by α-phase [2]: 69%; % of given dose represented by β-phase [2]: 31%; Peak (t = O) concentration [2]: 29.3 µg/mL; Total Clearance [2]: 0.24 mL/min/kg; Volume of Distribution, α-phase [2]: 0.036 L/kg; Volume of Distribution, β-phase [2]: 0.073 L/kg; plasma level 24 hours after dosing ([2]; 24 hours): not distinguishable from control levels; Serum half-life, α-phase ([2]; mean of 8 animals): 8.3 min; Serum half-life, β-phase ([2]; mean of 8 animals): 6 h and 6.05 h; mean half-life, β-phase ([2]; two-compartment model): 6 h; pI of dominant isoforms ([3]; chromatofocusing): 5.1 and 4.8; pI of minor isoforms ([3]; chromatofocusing, smaller quantities / minor component): 5.7; proportion of preparation with pI <4.9 ([3]; peak integration): approximately 40%; α phase half-life ([4]; 3 mg/kg): 0.163 h; β phase half-life ([4]; 3 mg/kg): 4.452 h
TP10HD-CCS: the strongly cationic form of TP10HD-CC isolated by preparative HPLC cation exchange chromatography | ~27 ng/mL | no basis for concluding that TP10HD-CC, TP10HD-CCW and TP10HD-CCS differ in their potency | 0.111 | 2.22 | 73 | 27 | 0.167 | 1.27 | 1.24 | 25.5 ± 1.5% and ~25% | 14.6 ± 1.0 | 3.6 h and 3.608 ± 0.613 h | 0.85 ± 0.12 mL/min/kg and 0.85 mL/min/kg | 0.0698 ± 0.0048 | 162.0 ± 13.9 ml/kg and ~ 162 ml/kg | –
TP10HD-CCW: the weakly cationic form of TP10HD-CC isolated by preparative HPLC cation exchange chromatography | 44 ng/mL | no basis for concluding that TP10HD-CC, TP10HD-CCW and TP10HD-CCS differ in their potency | 0.2035 | 1.67 | 30 | 70 | 0.233 | 6.27 | 0.1 | 69.1 ± 1.9% and ~70% | 17.8 ± 0.3 | 3.6 h and 3.61 ± 0.313 h | 0.26 ± 0.02 mL/min/kg and 0.26 mL/min/kg | 0.0562 ± 0.001 | 22.6 ± 1.9 ml/kg and ~ 23 ml/kg | –
